Source: patent US6353089B1, “Method for stimulating CTLs with peptides” (Ludwig Institute for Cancer Research, priority 1994, dated 2002)

What was measured:
[1] = molecular target: T1, HLA-A2 molecules (Homo sapiens, UniProt P04439, D140Y/D185E/D98H/E176V/E277Q/G131W/G231S/I119V/I121R/I166T/I218V/L300P/L318F/N151K/N90K/P208A/P217A/Q86G/Q94H/R138H/R169H/T345S); experiment: HLA-A2 binding (stabilization) assay on T2 cells, mean fluorescence ratio; conditions: peptide 0.1 mM
T1 construct: endogenous in cells; host or cells: 174 CEM.T2 (T2) cells
Text: To determine whether or not peptides bound to HLA-A2 molecules, cell line 174 CEM.T2 (hereafter “T2”) was used. This cell line is described by Cerundolo et al., Nature 345: 449-452 (1990), and Spies et al., Nature 348: 744-747 (1990), the disclosures of which are incorporated by reference. This is a cell line deficient in the pathway which supplies peptides to the endoplasmic reticulum, the site of assembly of MHC class I heterodimers. It can assemble MHC class-I molecules, but these are unstable, and, on cell lysis, dissociate into free heavy and light chains during overnight incubation. The heterodimers can, however, be stabilized in vitro via addition of appropriate peptide ligands, as per Townsend et al., Nature 340: 443-448 (1989); Townsend et al., Cell 62: […] (1990); Cerundolo et al., supra; Schumacher et al., Nature 350: 703-706 (1991); Elliot et al., Nature 351: 402-406 (1991); Elvin et al., Eur. J. Immunol. 21 : 2025-2031 (1991). The thus stabilized molecules can be immunoprecipitated with antibodies specific for the MHC class-I molecule.
In light of this background, the T2 cells were washed in serum free IMDM medium, and then 1.0×10^6 cells were suspended in 400 ul of the serum free IMDM medium, together with 100 ul synthetic peptide (final concentration: 0.1 mM, 1% DMSO). The mixture was incubated, overnight, at 37° C. Following incubation, the cells were washed and stained, successively, with HLA-A2 specific monoclonal antibody BB7.2, and FITC labelled, binding fragments of polyclonal goat anti-mouse IgG. Fluorescence ratio was calculated by the following formula: [formula]
This yielded the “mean fluorescence ratio” or MFR. In accordance with Nijman et al, supra, an MFR greater than 1.5 indicates binding to HLA-A2.

[2] = test system: T2 cells; experiment: chromium release assay with CTL 4.2, T2 target cells; type: cell-based; conditions: for % 51CR Release: T2 + peptide
Experimental: The CTL clone was obtained using T2 cells, in accordance with Houbiers et al., Eur. J. Immunol. 23: 2072 (1993), previously incorporated by reference in its entirety.
Once the CTL clone was isolated, it was used in a chromium release assay in accordance with Boon, et al., J. Exp. Med. 152: 1184 (1980) the disclosure of which is incorporated by reference in its entirety. In addition to T2, cell line SK23, which is an HLA-A2 presenting line, was tested. The results are presented below:
Effector Cell (E): CTL 4.2 Target (T): HLA-A2 cell plus SEQ ID NO: 4

[3] = overnight 37° C., BB7.2 staining, MFR greater than 1.5 indicates binding to HLA-A2

## ALSRKVAEL [Peptide M3-108.116, MAGE-3 derived peptide]
[1]; in some of the experimental runs
  MFR (mean fluorescence ratio): < 1.5)
[1]; [3]
  MFR (mean fluorescence ratio): 2.17 (and, less than

## ALVETSYVKV [Peptide M3-277.286, MAGE-3 derived peptide]
[1]; [3]
  MFR (mean fluorescence ratio): 1.8 (and, less than

## IMPKAGLLI [Peptide M3-195.203]
[1]; [3]
  MFR (mean fluorescence ratio): 2.37

## KIWEELSVL [Peptide M3-220.228]
[2]; effector CTL 4.2, E/T ratio 0.5
  % 51CR Release: 57%
[2]; effector CTL 4.2, E/T ratio 1.9
  % 51CR Release: 84%
[2]; effector CTL 4.2, E/T ratio 7.5
  % 51CR Release: 88%
[2]; effector CTL 4.2, E/T ratio 30
  % 51CR Release: 91%
[2]; target cells (T2, SK23) pulsed with peptide, no lysis in the absence of the peptide
  lysis of peptide-pulsed target cells by cytolytic T cell clone 4.2: specifically lysed

## TLVEVTLGEV [Peptide M3-44.53]
[1]; [3]
  MFR (mean fluorescence ratio): 3.5
